Target: STAT-1alpha wild type (Tyr-phosphorylated) (Homo sapiens, UniProt P42224 P42224:2-750)
Test: EMSA
Settings: tags: in vitro Tyr-phosphorylated with EGF-receptor kinase; chain copies: 4 on tandem site (two dimers), stated; 2 on single site; label: radiolabel
Experimental: Both protein preparations (Tyr-phosphorylated wild type STAT-1α and W37A mutant) were titrated in gel shift experiments with an oligonucleotide containing a single M67 site (5'-GCCGAT TTCCCGTAAATCAT-3', SEQ ID NO:5) [Wagner et al., *EMBO J.* 9:4477 (1990)] to assure similar loading of active protein. A 12.5 μl reaction volume contained DNA binding buffer (20 mM Hepes/HCl, 4% Ficoll, 40 mM KCl, 10 mM MgCl_2, 10 mM CaCl_2, 1 mM DTT) radiolabelled DNA at a final concentration of 1×10^-10 M unless stated otherwise, 50 ng dIdC, 0.2 mg/ml BSA (Boebringer Mannheim), and the indicated amount of purified phosphorylated STAT protein. The reaction volume was mixed and then incubated at room temperature. The time necessary to reach equilibrium was assessed by EMSA [(Stone et al., in Jost, J.P. & Saluz, H.P. (eds) *A Laboratory Guide to In Vitro Studies of Protein-DNA Interactions* BioMethods, vol.5:163–195 (1991)]. For all DNA fragments tested, equilibrium turned out to be fully established at the earliest timepoint that can be determined by this technique (30 sec). Therefore incubation periods of 5–15 minutes were chosen. Reaction products were loaded onto a 4% polyacrylamide gel (1.5 mm thick) containing 0.25×Tris-borate-EDTA which had been pre-run at 20V/cm for 2 hours at 4° C. Electrophoresis was continued for 60 minutes at 4° C. […]

STAT-1alpha wild type (Tyr-phosphorylated), sequence (P42224 2-750, one chain of several): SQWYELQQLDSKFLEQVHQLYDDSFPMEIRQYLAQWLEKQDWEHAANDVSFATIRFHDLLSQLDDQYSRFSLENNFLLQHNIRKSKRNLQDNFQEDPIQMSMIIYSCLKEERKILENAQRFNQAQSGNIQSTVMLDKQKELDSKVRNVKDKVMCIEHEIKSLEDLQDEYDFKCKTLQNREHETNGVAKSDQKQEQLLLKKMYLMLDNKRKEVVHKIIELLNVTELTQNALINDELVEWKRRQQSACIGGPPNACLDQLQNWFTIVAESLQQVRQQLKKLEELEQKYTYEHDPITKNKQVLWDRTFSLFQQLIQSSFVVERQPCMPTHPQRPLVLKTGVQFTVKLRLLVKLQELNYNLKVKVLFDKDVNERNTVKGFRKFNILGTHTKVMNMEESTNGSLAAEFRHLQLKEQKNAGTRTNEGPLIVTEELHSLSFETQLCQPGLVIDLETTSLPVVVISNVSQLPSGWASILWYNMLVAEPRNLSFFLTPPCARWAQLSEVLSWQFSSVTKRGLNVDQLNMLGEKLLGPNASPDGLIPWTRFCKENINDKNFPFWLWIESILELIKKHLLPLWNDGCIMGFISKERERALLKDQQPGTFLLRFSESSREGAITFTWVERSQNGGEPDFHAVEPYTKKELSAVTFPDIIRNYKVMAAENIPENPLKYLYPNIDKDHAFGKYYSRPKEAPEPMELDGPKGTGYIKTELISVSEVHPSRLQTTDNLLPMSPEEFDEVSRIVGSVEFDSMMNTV

B1: tandem c-fos STAT recognition element, 10 bp spacing (dsDNA)
DNA 1: GCCAGTCAGTTCCCGTCAATGCATCAGGTTCCCGTCAATGCAT
DNA 2: ATGCATTGACGGGAACCTGATGCATTGACGGGAACTGACTGGC
binding result: binds

— patent US6312887, “Method of using a crystal of the N-terminal domain of a signal transducer and activator of transcription” (The Rockefeller University)
